* marks the point of attachment. Biotin = O=C1N[C@H]2[C@H](CS[C@H]2CCCCC(=O)*)N1
Tests used:
[1] = biological target: T1, mature myostatin (recombinant, dimeric) (mouse polyprotein used for in-house …, UniProt O08689 268-376); experiment: cell-based or functional assay
T1 sequence: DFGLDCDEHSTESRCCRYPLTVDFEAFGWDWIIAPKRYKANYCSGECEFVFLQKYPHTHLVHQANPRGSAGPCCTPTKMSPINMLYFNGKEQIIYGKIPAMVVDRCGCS

[2] = biological target: T2, artificial myostatin linear peptide 5 (cysteine pairing not given here); experiment: SRU BIND reader, peptides captured on streptavidin biosensor plate
T2 construct: also called Peptide No 5
T2 peptide: Biotin-SGSGHSTESRCCRYPLTV-NH2
Description: Work was carried out on an SRU BIND reader (SRU Biosystems). A streptavidin biosensor plate was washed, a baseline reading taken, and biotinylated peptides captured onto the streptavidin coated biosensor plate. The plate was washed again, and a new baseline reading taken, antibody was then added and binding monitored.

[3] = biological target: T1, mature myostatin (recombinant, dimeric); experiment: BIAcore T100, antibody captured on anti-mouse IgG (C1 chip), myostatin analyte, all curves Bivalent model
Description: (§1) The affinity of 10B3 mouse parental and 10B3C for recombinant myostatin was assessed by BIAcore™ (surface plasmon resonance) analysis. Analysis was carried out by the use of a capture surface: anti-mouse IgG was coupled to a C1 chip by primary amine coupling for 10B3 mouse parental; and a protein A surface was created on a C1 chip by primary amine coupling for 10B3 chimera.
(§2) After capture, recombinant myostatin was passed over the surface at 64 nM, 16 nM, 4 nM, 1 nM, 0.25 nM and 0.0625 nM, with a buffer injection (i.e. 0 nM) used for double referencing. There was a regeneration step between each analyte injection, after which the new antibody capture event occurred before the next injection of myostatin. The data was analysed using both the 1:1 model and the Bivalent model inherent to the T100 machines analysis software (see Table 6). Both capture surfaces could be regenerated using 100 mM phosphoric acid, the work was carried out using HBS-EP as the running buffer and using 25° C. as the analysis temperature.

[4] = biological target: T1, mature myostatin (recombinant, dimeric); experiment: BIAcore T100, antibody captured on anti-mouse IgG (C1 chip), myostatin analyte, all curves 1:1 model
Description: as §1, §2

[5] = biological target: T1, mature myostatin (recombinant, dimeric); experiment: cell-based or functional assay; remark: listed apart in the source
[6] = biological target: T3, human myostatin pro-peptide dimer (human, UniProt O14793 25-266); experiment: ELISA, plate-coated antigen
T3 sequence: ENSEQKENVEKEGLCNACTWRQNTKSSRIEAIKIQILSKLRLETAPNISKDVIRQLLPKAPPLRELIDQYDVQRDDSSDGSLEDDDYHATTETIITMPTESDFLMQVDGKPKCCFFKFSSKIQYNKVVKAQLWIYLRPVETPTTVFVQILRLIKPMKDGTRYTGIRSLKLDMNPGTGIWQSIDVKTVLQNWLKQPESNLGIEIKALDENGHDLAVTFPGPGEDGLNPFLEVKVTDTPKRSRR
Description: The myostatin antigens were coated onto wells of an EIA/RIA plate (Costar) at 100 ng/well at 4° C. overnight in PBS, prior to blocking (PBS, 3% BSA) for 30 minutes at room temperature. Plates were washed (PBS, 1% BSA and 0.1% Tween20), prior to the addition of a dilution series of 10B3 in wash buffer and incubation for 2 hours at room temperature. […] A final wash step preceded addition of TMB substrate and colorimetric change which was stopped with Sulphuric acid and plates read at 450 nm.

[7] = biological target: T1, mature myostatin (recombinant, dimeric); experiment: ELISA, plate-coated myostatin (R&D Systems), mean EC50
Description: 10B3 and 10B3 chimera (10B3C) bound myostatin (R&D Systems, 788-G8-010/CF) in a sandwich ELISA. Plates were coated with myostatin at 10 ng/well and blocked with Block solution (PBS, 0.1% TWEEN and 1% BSA). Following washing (PBS, 0.1% TWEEN), antibody was incubated at 37° C. for 2 hours over a dilution series and plates washed again prior to incubation at 37° C. for 1 hour with anti-mouse HRP or anti-human HRP (Dako, P0161 & Sigma, A-8400, respectively). Plates were again washed and OPD substrate (Sigma, P9187) added until colourometric reaction occurred and the reaction stopped by the addition of H₂SO₄.

[8] = biological target: T1, mature myostatin (recombinant, dimeric); experiment: ActRIIb receptor binding assay (Example 2.5), mean IC50
Description: (§3) Recombinant soluble ActRIIb (R&D Systems 339-RBB) was coated in wells of an ELISA plate at 1 μg/ml in carbonate buffer overnight at 4° C. Plates were blocked (see Block solution above at 2.3) and washed following standard ELISA protocols. In parallel, 2 nM biotinylated myostatin (in-house, as described in 1.1, biotinylated material) was pre-incubated with an antibody dilution series consisting of 10B3, 10B3C, and a negative control (IgG1 isotype control) for 2 hours at 37° C. The biotinylated myostatin:antibody reactions were then added to the ActRIIb coated plate for 1 hour at 37° C. Standard wash procedures were followed prior to addition of 1:1000 diluted streptavidin-HRP conjugate (Dako P0397) and a further 37° C. incubation for 1 hour. Plates were again washed and assayed at absorbance 490 nm following OPD substrate (Sigma) and acid stop solution treatment Inhibition curves and IC50 values for the inhibition of myostatin activity are shown in FIG. 5 and Table 8 respectively.
H2L2 C91S_G55S F100G_Y, the developability enhanced molecule with the highest apparent potency in the A204 assay was Fc-disabled (by making the following substitutions, using EU numbering system: Leu 235 Ala; and Gly 237 Ala) as exemplified in SEQ ID NO: 99.

[9] = biological target: T1, mature myostatin (recombinant, dimeric); experiment: ELISA: inhibition of 2 nM biotinylated myostatin binding to plate-coated ActRIIb, mean IC50 (= 0.88 nM by paragraph 327)
Description: as §3

B1: mouse monoclonal antibody 10B3 (antibody, V domains shown)
VH: EVQLQQSGPELVKPGASVKISCKASGYSFTGYFMHWVKQSHGNILDWIGNIYPYNGVSNYNQRFKAKATLTVDKSSSTAYMELRSLTSEDSAVYYCARRYYYGTGPADWYFDVWGTGTTVTVSS
VL: DIKMTQSPSSMYASLRERVTITCKASQDINSYLSWFQQKPGKSPKTLIYRANRLVDGVPSRFSGSGSGQDYSLTISSLEYEDMGIYYCLQCDEFPLTFGAGTKLELK
notes: Mouse IgG2a/kappa from hybridoma; also called 10B3 mouse parental; 10B3 parental
In the case of B1, the “Mean IC50, A204 in vitro activity assay” value [1] is reported as 8.5 nM, the binding result [2] is reported as “no binding” and the Kd [3] is reported as 5.9 nM. For the same binder, the Kd [4] was 1 nM, the “Mean IC50, myostatin responsive reporter gene assay (A204 cells, luciferase)” value [5] was 10 nM and the binding result [6] was “no binding”. For the same binder, the EC50 [7] was 0.069 µg/mL, the IC50 [8] was 0.161 nM and the IC50 [9] was 0.132 µg/mL.

Source: US20110256132A1 (published 2011)
